Source: patent US20060160994A1 (STICHTING SANQUIN BLOEDVOORZIENING, published 2006)

Tests used:
[1] = target: T1, low density lipoprotein receptor-related protein (LRP), purified and immobilized (UniProt Q07954 20-4544, limits assumed); assay: SPR, LRP immobilized (6.7 fmol/mm^2), two classes of binding sites, class A; Kd = koff/kon
T1 construct: Purified LRP, amine-coupled to a CM5 sensor chip; also called low density lipoprotein receptor protein; alpha2-macroglobulin receptor
Experimental: (§1) This method is generally known in the art and was employed for the kinetic analysis of the interaction between LRP and receptor-associated protein (RAP) (Hom I, in LRP-ligand interactions: kinetics and structural requirements; Ph.D. thesis, 1997, pp. 65-106, Amsterdam University). […] Subsequently, the channels were incubated with the same buffer at a similar flow so as to enable dissociation.
(§2) The data were analyzed by means of Biacore Evaluation Software (Pharmacia Biosensor AB, Uppsala, Sweden). […] The association and dissociation speed constants (kₒₙ and koff, respectively) were calculated for the two binding sites. These speed constants were subsequently used to obtain the affinity constants (Kd) for these interactions.

[2] = target: T1, low density lipoprotein …; assay: SPR, LRP immobilized (6.7 fmol/mm^2), two classes of binding sites, class B; Kd = koff/kon
Experimental: as §1, §2

[3] = target: T1, low density lipoprotein …; assay: SPR, LRP immobilized (6.7 fmol/mm^2), two classes of binding sites, class B
Experimental: as §1, §2

[4] = target: T1, low density lipoprotein …; assay: SPR, LRP immobilized (6.7 fmol/mm^2), two classes of binding sites, class A
Experimental: as §1, §2

T1 sequence (Q07954 20-4544 limits assumed, form in doubt): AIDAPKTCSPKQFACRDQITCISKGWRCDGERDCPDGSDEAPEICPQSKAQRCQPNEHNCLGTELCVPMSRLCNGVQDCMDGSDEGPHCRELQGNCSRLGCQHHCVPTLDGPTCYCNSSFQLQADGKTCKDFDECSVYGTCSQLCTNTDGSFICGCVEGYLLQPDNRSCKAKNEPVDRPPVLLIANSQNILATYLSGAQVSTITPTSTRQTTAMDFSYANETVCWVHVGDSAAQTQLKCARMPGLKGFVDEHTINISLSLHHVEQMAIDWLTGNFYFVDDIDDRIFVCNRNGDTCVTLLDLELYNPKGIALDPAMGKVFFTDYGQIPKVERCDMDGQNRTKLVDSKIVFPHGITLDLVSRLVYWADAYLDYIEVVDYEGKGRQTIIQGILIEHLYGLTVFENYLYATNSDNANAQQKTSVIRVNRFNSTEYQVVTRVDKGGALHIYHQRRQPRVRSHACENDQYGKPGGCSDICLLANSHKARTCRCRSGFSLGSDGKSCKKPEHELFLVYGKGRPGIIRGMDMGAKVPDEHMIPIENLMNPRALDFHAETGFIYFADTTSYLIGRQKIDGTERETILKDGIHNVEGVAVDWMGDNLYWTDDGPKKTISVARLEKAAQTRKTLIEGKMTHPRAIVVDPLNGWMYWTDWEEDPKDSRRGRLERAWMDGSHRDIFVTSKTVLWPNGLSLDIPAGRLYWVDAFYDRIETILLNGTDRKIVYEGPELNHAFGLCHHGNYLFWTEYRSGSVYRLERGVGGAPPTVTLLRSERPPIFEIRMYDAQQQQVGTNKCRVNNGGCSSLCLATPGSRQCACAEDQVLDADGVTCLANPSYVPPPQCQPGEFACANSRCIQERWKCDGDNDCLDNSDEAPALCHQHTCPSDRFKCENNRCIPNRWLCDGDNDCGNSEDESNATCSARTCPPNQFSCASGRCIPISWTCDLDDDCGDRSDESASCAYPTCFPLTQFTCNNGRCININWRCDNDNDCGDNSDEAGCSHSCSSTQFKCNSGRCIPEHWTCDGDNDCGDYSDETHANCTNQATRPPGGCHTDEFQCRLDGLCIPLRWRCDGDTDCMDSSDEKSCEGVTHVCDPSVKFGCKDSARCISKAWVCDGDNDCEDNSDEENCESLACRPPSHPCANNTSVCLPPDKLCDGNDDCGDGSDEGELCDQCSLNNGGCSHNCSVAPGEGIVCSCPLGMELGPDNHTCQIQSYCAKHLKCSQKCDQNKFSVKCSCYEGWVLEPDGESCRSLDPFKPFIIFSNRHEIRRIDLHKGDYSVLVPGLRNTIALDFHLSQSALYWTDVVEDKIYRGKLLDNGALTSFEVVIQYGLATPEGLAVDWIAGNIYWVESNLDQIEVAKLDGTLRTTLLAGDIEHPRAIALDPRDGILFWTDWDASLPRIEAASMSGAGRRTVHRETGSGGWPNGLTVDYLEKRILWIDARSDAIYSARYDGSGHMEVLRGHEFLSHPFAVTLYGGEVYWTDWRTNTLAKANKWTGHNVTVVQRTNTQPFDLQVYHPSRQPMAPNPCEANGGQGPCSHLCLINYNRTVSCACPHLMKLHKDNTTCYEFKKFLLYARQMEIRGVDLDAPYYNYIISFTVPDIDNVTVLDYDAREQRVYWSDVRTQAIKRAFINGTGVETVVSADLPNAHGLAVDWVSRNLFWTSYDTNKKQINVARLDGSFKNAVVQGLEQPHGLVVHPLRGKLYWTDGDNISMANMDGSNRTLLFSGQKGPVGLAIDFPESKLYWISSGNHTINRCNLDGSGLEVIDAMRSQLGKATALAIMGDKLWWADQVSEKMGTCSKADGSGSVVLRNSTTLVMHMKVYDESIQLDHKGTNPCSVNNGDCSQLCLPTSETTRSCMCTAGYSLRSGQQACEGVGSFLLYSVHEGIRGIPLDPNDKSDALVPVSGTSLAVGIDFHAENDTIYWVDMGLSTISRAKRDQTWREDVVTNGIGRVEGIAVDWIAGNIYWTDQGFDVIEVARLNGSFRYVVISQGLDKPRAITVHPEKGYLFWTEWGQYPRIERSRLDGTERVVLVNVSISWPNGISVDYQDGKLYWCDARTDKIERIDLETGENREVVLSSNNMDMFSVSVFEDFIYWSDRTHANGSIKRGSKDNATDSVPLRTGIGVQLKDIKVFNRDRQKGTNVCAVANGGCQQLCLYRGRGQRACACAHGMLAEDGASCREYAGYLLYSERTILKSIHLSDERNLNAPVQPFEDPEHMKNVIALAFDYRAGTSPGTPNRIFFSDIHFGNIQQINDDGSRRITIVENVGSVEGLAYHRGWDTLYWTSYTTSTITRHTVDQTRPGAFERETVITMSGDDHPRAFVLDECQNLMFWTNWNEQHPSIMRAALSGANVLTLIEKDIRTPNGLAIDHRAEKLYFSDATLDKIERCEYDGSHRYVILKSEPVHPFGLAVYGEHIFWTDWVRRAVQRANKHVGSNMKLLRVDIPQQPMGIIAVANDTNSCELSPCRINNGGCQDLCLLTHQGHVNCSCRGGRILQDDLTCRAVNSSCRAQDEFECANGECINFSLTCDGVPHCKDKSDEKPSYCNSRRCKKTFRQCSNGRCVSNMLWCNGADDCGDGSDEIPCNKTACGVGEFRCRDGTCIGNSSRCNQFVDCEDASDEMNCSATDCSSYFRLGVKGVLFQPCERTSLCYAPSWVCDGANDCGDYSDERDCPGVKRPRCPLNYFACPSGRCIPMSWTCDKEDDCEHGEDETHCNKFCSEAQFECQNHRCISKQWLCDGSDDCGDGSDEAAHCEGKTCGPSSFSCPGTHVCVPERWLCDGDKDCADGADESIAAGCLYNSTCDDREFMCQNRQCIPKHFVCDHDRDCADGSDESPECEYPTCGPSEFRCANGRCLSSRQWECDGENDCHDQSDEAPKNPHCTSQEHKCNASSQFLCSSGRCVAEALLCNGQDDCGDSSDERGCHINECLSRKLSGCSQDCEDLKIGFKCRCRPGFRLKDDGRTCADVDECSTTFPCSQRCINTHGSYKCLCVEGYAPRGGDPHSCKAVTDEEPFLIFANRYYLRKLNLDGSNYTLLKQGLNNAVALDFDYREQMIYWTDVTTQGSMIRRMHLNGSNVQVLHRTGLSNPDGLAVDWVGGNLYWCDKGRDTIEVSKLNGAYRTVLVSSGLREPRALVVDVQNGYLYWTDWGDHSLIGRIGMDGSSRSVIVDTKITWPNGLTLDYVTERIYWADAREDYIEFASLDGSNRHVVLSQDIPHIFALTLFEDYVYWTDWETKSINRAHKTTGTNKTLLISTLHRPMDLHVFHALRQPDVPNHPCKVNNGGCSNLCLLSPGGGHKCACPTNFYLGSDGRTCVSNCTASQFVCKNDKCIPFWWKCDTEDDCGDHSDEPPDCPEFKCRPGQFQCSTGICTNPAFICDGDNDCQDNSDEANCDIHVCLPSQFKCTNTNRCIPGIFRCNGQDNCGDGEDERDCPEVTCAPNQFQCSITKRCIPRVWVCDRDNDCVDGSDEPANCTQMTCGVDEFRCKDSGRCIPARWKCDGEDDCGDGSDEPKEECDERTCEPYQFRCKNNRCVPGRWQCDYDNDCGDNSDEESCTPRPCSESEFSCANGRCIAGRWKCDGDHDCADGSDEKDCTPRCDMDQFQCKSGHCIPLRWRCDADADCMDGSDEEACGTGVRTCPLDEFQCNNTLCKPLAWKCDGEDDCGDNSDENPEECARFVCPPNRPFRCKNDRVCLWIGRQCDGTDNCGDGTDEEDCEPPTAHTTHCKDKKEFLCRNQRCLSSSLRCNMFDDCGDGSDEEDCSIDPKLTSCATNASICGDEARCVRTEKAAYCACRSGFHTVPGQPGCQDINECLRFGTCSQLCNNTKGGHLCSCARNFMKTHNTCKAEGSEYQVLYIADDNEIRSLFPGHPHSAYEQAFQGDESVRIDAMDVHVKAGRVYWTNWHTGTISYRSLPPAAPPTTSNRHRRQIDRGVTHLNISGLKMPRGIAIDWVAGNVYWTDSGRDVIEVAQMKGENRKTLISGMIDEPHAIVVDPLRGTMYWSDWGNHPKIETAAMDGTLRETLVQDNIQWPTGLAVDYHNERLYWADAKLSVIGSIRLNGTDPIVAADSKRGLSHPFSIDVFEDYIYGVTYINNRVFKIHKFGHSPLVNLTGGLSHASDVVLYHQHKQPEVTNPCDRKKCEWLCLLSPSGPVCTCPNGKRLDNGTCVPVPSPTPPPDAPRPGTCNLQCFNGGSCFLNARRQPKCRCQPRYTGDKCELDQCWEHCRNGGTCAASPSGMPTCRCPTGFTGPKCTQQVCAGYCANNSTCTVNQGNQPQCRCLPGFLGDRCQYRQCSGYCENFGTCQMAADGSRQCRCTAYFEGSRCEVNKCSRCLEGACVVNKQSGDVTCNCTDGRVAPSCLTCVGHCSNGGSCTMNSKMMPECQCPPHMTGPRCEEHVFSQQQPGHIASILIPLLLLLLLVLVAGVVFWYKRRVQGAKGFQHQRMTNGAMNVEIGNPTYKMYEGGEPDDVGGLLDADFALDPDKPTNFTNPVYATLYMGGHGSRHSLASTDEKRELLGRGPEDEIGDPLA

- Kd [1]: 182 nM
- Kd [2]: 37 nM
- koff [3]: 0.0027 s⁻¹
- kon [3]: 72000 M⁻¹ s⁻¹
- koff [4]: 0.055 s⁻¹
- kon [4]: 300000 M⁻¹ s⁻¹
B1: light chain of Factor VIII (other)
chain: EITRTTLQSDQEEIDYDDTISVEMKKEDFDIYDEDENQSPRSFQKKTRHYFIAAVERLWDYGMSSSPHVLRNRAQSGSVPQFKKVVFQEFTDGSFTQPLYRGELNEHLGLLGPYIRAEVEDNIMVTFRNQASRPYSFYSSLISYEEDQRQGAEPRKNFVKPNETKTYFWKVQHHMAPTKDEFDCKAWAYFSDVDLEKDVHSGLIGPLLVCHTNTLNPAHGRQVTVQEFALFFTIFDETKSWYFTENMERNCRAPCNIQMEDPTFKENYRFHAINGYIMDTLPGLVMAQDQRIRWYLLSMGSNENIHSIHFSGHVFTVRKKEEYKMALYNLYPGVFETVEMLPSKAGIWRVECLIGEHLHAGMSTLFLVYSNKCQTPLGMASGHIRDFQITASGQYGQWAPKLARLHYSGSINAWSTKEPFSWIKVDLLAPMIIHGIKTQGARQKFSSLYISQFIIMYSLDGKKWQTYRGNSTGTLMVFFGNVDSSGIKHNIFNPPIIARYIRLHPTHYSIRSTLRMELMGCDLNSCSMPLGMESKAISDAQITASSYFTNMFATWSPSKARLHLQGRSNAWRPQVNNPKEWLQVDFQKTMKVTGVTTQGVKSLLTSMYVKEFLISSSQDGHQWTLFFQNGKVKVFQGNQDSFTPVVNSLDPPLLTRYLRIHPQSWVHQIALRMEVLGCEAQDLY
notes: also called Factor VIII light chain
